Test results taken from ChEMBL document CHEMBL5108047.

What was measured:
[1] = system: CN(C(=S)Cn1nc2c(c1C(F)(F)F)CCC2)c1ccccc1; details: Homo sapiens; dose 5.0 nM
Description: Inhibition of human DNA polymerase theta assessed as substrate Vmax using dNTP as substrate at 5 nM

[2] = system: CN(C(=S)Cn1nc2c(c1C(F)(F)F)CCC2)c1ccccc1; details: Homo sapiens; dose 30.0 nM
Description: Inhibition of human DNA polymerase theta assessed as substrate Vmax using dNTP as substrate at 30 nM

[3] = system: CN(C(=S)Cn1nc2c(c1C(F)(F)F)CCC2)c1ccccc1; details: Homo sapiens; dose 10.0 nM
[4] = system: CN(C(=S)Cn1nc2c(c1C(F)(F)F)CCC2)c1ccccc1; details: Homo sapiens; dose 20.0 nM
[5] = system: CN(C(=S)Cn1nc2c(c1C(F)(F)F)CCC2)c1ccccc1; details: Homo sapiens; dose 2.5 nM
Description: Inhibition of human DNA polymerase theta assessed as substrate Km using dNTP as substrate at 2.5 nM

[6] = system: CN(C(=S)Cn1nc2c(c1C(F)(F)F)CCC2)c1ccccc1; details: Homo sapiens; dose 40.0 nM
[7] = system: CN(C(=S)Cn1nc2c(c1C(F)(F)F)CCC2)c1ccccc1; details: Homo sapiens; dose 5.0 nM; remark: listed apart in the source
Description: Inhibition of human DNA polymerase theta assessed as substrate Km using dNTP as substrate at 5 nM

[8] = system: CN(C(=S)Cn1nc2c(c1C(F)(F)F)CCC2)c1ccccc1; details: Homo sapiens; dose 40.0 nM; remark: listed apart in the source
[9] = system: CN(C(=S)Cn1nc2c(c1C(F)(F)F)CCC2)c1ccccc1; details: Homo sapiens; dose 30.0 nM; remark: listed apart in the source
Description: Inhibition of human DNA polymerase theta assessed as substrate Km using dNTP as substrate at 30 nM

[10] = system: CN(C(=S)Cn1nc2c(c1C(F)(F)F)CCC2)c1ccccc1; details: Homo sapiens; dose 2.5 nM; remark: listed apart in the source
Description: Inhibition of human DNA polymerase theta assessed as substrate Vmax using dNTP as substrate at 2.5 nM

[11] = system: CN(C(=S)Cn1nc2c(c1C(F)(F)F)CCC2)c1ccccc1; details: Homo sapiens; dose 10.0 nM; remark: listed apart in the source
[12] = system: CN(C(=S)Cn1nc2c(c1C(F)(F)F)CCC2)c1ccccc1; details: Homo sapiens; dose 20.0 nM; remark: listed apart in the source

DNA polymerase theta (Homo sapiens), O75417
Vmax [1]: 51.3 µM/min
Vmax [2]: 15.2 µM/min
Vmax [3]: 25.5 µM/min
Km [4]: 57 µM
Km [5]: 25.2 µM
Vmax [6]: 6.45 µM/min
Km [7]: 36.6 µM
Km [8]: 39.5 µM
Km [9]: 112 µM
Vmax [10]: 51.2 µM/min
Km [11]: 24 µM
Vmax [12]: 21.8 µM/min
